Results from article PMC5426085 (Frontiers in Microbiology, 2017).

B1: Staphylococcus aureus FtsZ (natural protein, UniProt P0A031 1-390, looked up)
chain: MLEFEQGFNHLATLKVIGVGGGGNNAVNRMIDHGMNNVEFIAINTDGQALNLSKAESKIQIGEKLTRGLGAGANPEIGKKAAEESREQIEDAIQGADMVFVTSGMGGGTGTGAAPVVAKIAKEMGALTVGVVTRPFSFEGRKRQTQAAAGVEAMKAAVDTLIVIPNDRLLDIVDKSTPMMEAFKEADNVLRQGVQGISDLIAVSGEVNLDFADVKTIMSNQGSALMGIGVSSGENRAVEAAKKAISSPLLETSIVGAQGVLMNITGGESLSLFEAQEAADIVQDAADEDVNMIFGTVINPELQDEIVVTVIATGFDDKPTSHGRKSGSTGFGTSVNTSSNATSKDESFTSNSSNAQATDSVSERTHTTKEDDIPSFIRNREERRSRRTRR
notes: cell division protein FtsZ, Staphylococcus aureus; also called SaFtsZ; filamenting temperature-sensitive mutant Z; source: recombinant; cloned, overexpressed, and purified as described previously (Sun et al., 2014; Li et al., 2015)
B2: E. coli FtsZ (natural protein, UniProt P0A9A6 1-383, looked up)
chain: MFEPMELTNDAVIKVIGVGGGGGNAVEHMVRERIEGVEFFAVNTDAQALRKTAVGQTIQIGSGITKGLGAGANPEVGRNAADEDRDALRAALEGADMVFIAAGMGGGTGTGAAPVVAEVAKDLGILTVAVVTKPFNFEGKKRMAFAEQGITELSKHVDSLITIPNDKLLKVLGRGISLLDAFGAANDVLKGAVQGIAELITRPGLMNVDFADVRTVMSEMGYAMMGSGVASGEDRAEEAAEMAISSPLLEDIDLSGARGVLVNITAGFDLRLDEFETVGNTIRAFASDNATVVIGTSLDPDMNDELRVTVVATGIGMDKRPEITLVTNKQVQQPVMDRYQQHGMAPLTQEQKPVAKVVNDNAPQTAKEPDYLDIPAFLRKQAD
notes: cell division protein FtsZ, Escherichia coli; also called EcFtsZ; source: recombinant; cloned, overexpressed, and purified as described previously (Sun et al., 2014; Li et al., 2015)

Legend:
[1] = molecular target: FtsZ (SaFtsZ) (Staphylococcus aureus, UniProt P0A031); test: GTPase assay (phosphate release), […]° light scattering polymerization, TEM, far-UV CD with recombinant purified FtsZ; format: biochemical; conditions: read-out: % inhibition of GTPase at 8 μg/mL (~15 μM)
[2] = molecular target: the molecule itself; test: 90° light scattering of polymerization; FtsZ 6 μM in 20 mM Tris pH 7.4, 0.01% Triton X-100; started with 20 mM KCl, 5 mM MgCl2, 1 mM GTP; 37°C; 600 nm; without and with compound 1 (1 to 6 μg/mL); self-assembly into polymers

Molecule | inhibition at 8 µg/mL [1] | binding result [2]
CN1/C(=C/c2cc(/C=C/c3ccc(O)cc3)[n+](C)c3ccccc23)Sc2ccccc21 [compound 1, 2-((E)-4-hydroxystyryl)-1-methyl-4-((Z)-(3-methylbenzo[d]thiazol-2(3H)-ylidene)methyl)quinolin-1-ium iodide] | 58% | –
B1 | – | binds
B2 | – | binds
